Source: patent US20220185863A1, “COMBINATION THERAPIES” (Shattuck Labs, Inc., priority 2019, published 2022)

Assays:
CT26 tumor = test: In vivo anti-tumor activity of TIGIT-Fc-LIGHT chimeric protein and anti-PD1 antibody in mice challenged with CT26 tumor; set-up: species or system mouse; details: monotherapy on days 1, 3, and 6, compared to vehicle only-treated mice
From the text: FIG. 5B is a Kaplan Meyer plot of survival and statistics of the CT26 tumor experiment of FIG. 5A. […] FIG. 5C and FIG. 5D includes data relevant to the graphs of FIG. 5A and FIG. 5B.

[1] = test system: tumor infiltrating lymphocytes (TIL) of CT26 (colorectal carcinoma) tumors; test: Immune phenotyping of tumor infiltrating lymphocytes (TIL) by flow cytometry; format: in vivo, BALB/C mice; details: IP days 0, 3, 6; 300 mg ARC, 100 mg anti-PD-1; tumor collected day 7
From the text: FIG. 6A to FIG. 6G show the results of immune phenotyping of the tumor infiltrating lymphocytes (TIL) in BALB/C mice harboring CT26 (colorectal carcinoma) tumor allografts treated with ARC (TIGIT-Fc-OX40L or TIGIT-Fc-LIGHT) alone or the combination with anti-PD-1 (clone RMP1-14) antibody. The fractions (expressed as percentages) of total CD8^+ cells (FIG. 6A), total Perforin CD8^+ cells (FIG. 6B), total IFNγ^+ CD8^+ cells (FIG. 6C), total AH1-tetramer CD8^+ cells (antigen-specific CD8^+ cells) (FIG. 6D), total CD4±cells (FIG. 6E), total NKP46^+ NK cells (FIG. 6F) and total IFNγ±(NKP46^+ NK) cells (FIG. 6G) in the indicated cell populations in the dissociated tumor tissue as determined by flow cytometry analyses.
BALB/C mice were inoculated with CT26 (colorectal carcinoma) tumors, and when starting tumor volumes reached 30-60 mm^3 (indicating day 0), treatment was begun. Mice were treated via intraperitoneal (IP) injection on days 0, 3, and 6 with […] of either ARC (TIGIT-Fc-OX40L or TIGIT-Fc-LIGHT) or the combination of each ARC with […] of anti-PD-1 (clone RMP1-14). On day 7, mice were euthanized, tumor tissue was collected and dissociated, and analyzed by flow cytometry and calculated as percent cell types. The total % of CD8+ T cells detected in the tumor are similar between treatment groups (FIG. 6A).
The immunodominant CD8+ T cell response against CT26 carcinoma cells is directed against a tumor/self-antigen, GP70423-431, also known as AH1. To evaluate the T cell response against CT26, total AH1-tetramer CD8^+ cells were quantitated.
Other relevant cell types, including total % of CD4+ T cells, NKP46^+ NK cells, including the total IFNγ±NKP46^+ NK cells in the tumors were also quantitated. […] The IFNγ±cells were quantitated among NKP46^+ NK cells.

tumors [2] = test: In vivo anti-tumor activity of TIGIT-Fc-OX40L chimeric protein and anti-CTLA-4 antibody in tumor-inoculated mice
Experimental: The in vivo ability of combinations of the TIGIT-Fc-OX40L chimeric protein with anti-CTLA-4 antibodies (FIG. 3A to FIG. 3C) to target and treat tumors were determined.
(§1) Mice were inoculated with tumors and were treated with a vehicle, an antibody, the TIGIT-Fc-OX40L chimeric protein, or combinations of the TIGIT-Fc-OX40L chimeric protein and an anti-CTLA-4 antibody; in the combinations, the TIGIT-Fc-OX40L chimeric protein was administered before the antibody, the TIGIT-Fc-OX40L chimeric protein was administered after the antibody, or the TIGIT-Fc-OX40L chimeric protein was administered with the antibody. See, FIG. 3A for the dose schedules.
FIG. 3C includes data relevant to the graphs of FIG. 3A and FIG. 3B.

tumors [3] = test: In vivo anti-tumor activity of TIGIT-Fc-OX40L chimeric protein and anti-PD-1 antibody in tumor-inoculated mice
Experimental: The in vivo ability of combinations of the TIGIT-Fc-OX40L chimeric protein with anti-PD-1 antibodies (FIG. 4A to FIG. 4D) to target and treat tumors were determined.
as §1, with “anti-PD-1” for “anti-CTLA-4”, “antibody.” for “antibody. See, FIG. 3A for the dose schedules.”
FIG. 4C and FIG. 4D include data relevant to the graphs of FIG. 4A and FIG. 4B.

[4] = administered on days 7, 9, and 11, compared to vehicle only-treated mice and to days 12, 14, 16 schedule
[5] = administered on days 12, 14, and 16, compared to vehicle only-treated mice
[6] = compared to the dosing regimen-matched αCTLA antibody-treated mice
[7] = compared to the dosing regimen-matched αPD-1 antibody-treated mice

B1: TIGIT-Fc-LIGHT: chimeric protein: extracellular domain of TIGIT, hinge-CH2-CH3 Fc linker, extracellular domain of LIGHT (SEQ ID NO: 61) (protein)
chain: MEWSWVFLFFLSVTTGVHSMMTGTIETTGNISAEKGGSIILQCHLSSTTAQVTQVNWEQQDQLLAICNADLGWHISPSFKDRVAPGPGLGLTLQSLTVNDTGEYFCIYHTYPDGTYTGRIFLEVLESSVAEHGARFQIPSKYGPPCPPCPAPEFLGGPSVFLFPPKPKDQLMISRTPEVTCVVVDVSQEDPEVQFNWYVDGVEVHNAKTKPREEQFNSTYRVVSVLTVLHQDWLSGKEYKCKVSSKGLPSSIEKTISNATGQPREPQVYTLPPSQEEMTKNQVSLTCLVKGFYPSDIAVEWESNGQPENNYKTTPPVLDSDGSFFLYSRLTVDKSRWQEGNVFSCSVLHEALHNHYTQKSLSLSLGKIEGRMDLQLHWRLGEMVTRLPDGPAGSWEQLIQERRSHEVNPAAHLTGANSSLTGSGGPLLWETQLGLAFLRGLSYHDGALVVTKAGYYYIYSKVQLGGVGCPLGLASTITHGLYKRTPRYPEELELLVSQQSPCGRATSSSRVWWDSSFLGGVVHLEAGEKVVVRVLDERLVRLRDGTRSYFGAFMV
slower tumor development: tumor development (CT26 tumor)
extended survival: survival (CT26 tumor)
increased: total AH1-tetramer CD8+ cells among the total CD8+ cells [1] | total CD4+ cells among the total mononuclear cells [1] | total IFNγ+ CD8+ cells among the total CD8+ cells [1] | total IFNγ+ cells among the total NKP46+ NK cells [1] | total NKP46+ NK cells among the total mononuclear cells [1] | total Perforin CD8+ cells among the total CD8+ cells [1]

B2: TIGIT-Fc-OX40L: chimeric protein: extracellular domain of TIGIT, hinge-CH2-CH3 Fc linker, extracellular domain of OX40L (SEQ ID NO: 60) (protein)
chain: MMTGTIETTGNISAEKGGSIILQCHLSSTTAQVTQVNWEQQDQLLAICNADLGWHISPSFKDRVAPGPGLGLTLQSLTVNDTGEYFCIYHTYPDGTYTGRIFLEVLESSVAEHGARFQIPSKYGPPCPPCPAPEFLGGPSVFLFPPKPKDQLMISRTPEVTCVVVDVSQEDPEVQFNWYVDGVEVHNAKTKPREEQFNSTYRVVSVLTVLHQDWLSGKEYKCKVSSKGLPSSIEKTISNATGQPREPQVYTLPPSQEEMTKNQVSLTCLVKGFYPSDIAVEWESNGQPENNYKTTPPVLDSDGSFFLYSRLTVDKSRWQEGNVFSCSVLHEALHNHYTQKSLSLSLGKIEGRMDQVSHRYPRIQSIKVQFTEYKKEKGFILTSQKEDEIMKVQNNSVIINCDGFYLISLKGYFSQEVNISLHYQKDEEPLFQLKKVRSVNSLMVASLTYKDKVYLNVTTDNTSLDDFHVNGGELILIHQNPGEFCVL
slower tumor development: tumor development (tumors [2]; [4]) | tumor development (tumors [2]; [5]) | tumor development (tumors [2]; [6]) | tumor development (tumors [3]; [4]) | tumor development (tumors [3]; [5]) | tumor development (tumors [3]; [7])
increased: total AH1-tetramer CD8+ cells among the total CD8+ cells [1] | total CD4+ cells among the total mononuclear cells [1] | total IFNγ+ CD8+ cells among the total CD8+ cells [1] | total IFNγ+ cells among the total NKP46+ NK cells [1] | total NKP46+ NK cells among the total mononuclear cells [1] | total Perforin CD8+ cells among the total CD8+ cells [1]
extended survival: survival (tumors [2]; [4]) | survival (tumors [2]; [5]) | survival (tumors [2]; [6]) | survival (tumors [3]; [4]) | survival (tumors [3]; [5]) | survival (tumors [3]; [7])
